We go through six sequences from the DeepSol protein solubility set.

The data set in a line: soluble on expression in E. coli; label from the status in PepcDB or PDB records.
On to “MNNFILLEEQLIKKSQQKRRTSPSNFKVRFFVLTKASLAYFEDRHGKKRTLKGSIELSRIKCVEIVKSDISIPCHYKYPFQVVHDNYLLYVFAPDRESRQRWVLALKEETRNNNSLVPKYHPNFWMDGKWRCCSQLEKLATGCAQYDPTKNASKKPLPPTPEDNRRPLWEPEETVVIALYDYQTNDPQELALRRNEEYCLLDSSEIHWWRVQDRNGHEGYVPSSYLVEKSPNNLETYEWYNKSISRDKAEKLLLDTGKEGAFMVRDSRTAGTYTVSVFTKAVVSENNPCIKHYHIKETNDNPKRYYVAEKYVFDSIPLLINYHQHNGGGLVTRLRYPVCFGRQKAPVTAGLRYGKWVIDPSELTFVQEIGSGQFGLVHLGYWLNKDKVAIKTIREGAMSEEDFIEEAEVMMKLSHPKLVQLYGVCLEQAPICLVFEFMEHGCLSDYLRTQRGLFAAETLLGMCLDVCEGMAYLEEACVIHRDLAARNCLVGENQVIKVSDFGMTRFVLDDQYTSSTGTKFPVKWASPEVFSFSRYSSKSDVWSFGVLMWEVFSEGKIPYENRSNSEVVEDISTGFRLYKPRLASTHVYQIMNHCWKERPEDRPAFSRLLRQLAEIAESGL”, for which the “soluble on expression in E. coli” value is given as “soluble”.

Take “MGSDKIHHHHHHMFLKNCWYVAAWSHEIDRTLQPQTFLGENVVLYRKQDGTPVALEDACPHRKLPLSDGALQGDTVECGYHGLTFDCAGACVAAPTQKDAIPKRATVKSYPVVDRYRFTWIWMGDPAEADPDLIFPIPNFDDPTWGKTDGGVLDIDCNYLWVVDNLLDPSHVAWVHVTSFAGGGTDGAPLQVDKTEHGVQVTRWIFGEPPSPYYENLLAFQGPCDRLQHYEMTRPAMATNMSIYTPPGTGGYGRSPVENTFINISYNFMTPITEDKTRYFWFQHRNSEPDNVEMSETMNKGAVMAFHEDKAILEKVHTGMKHAVTPHIDLGLDAGAKTFRLGLQKAIETENA”: the “soluble on expression in E. coli” value was “not soluble”.

Consider “MNPTNYDPRIGQPAQSRPQVSLSMGRRIVQMPTGLPRSYQDESHNEPVGWDEPSGVGGSSGAGGQQSDKPTGLRHFSTKVCEKVKEKGLTNYNEVADELVADYFQNNLIKQIDVVKQEYDMKNIRRRVYDALNVLLAMNIITKSKKDIRWIGLPASASQEISRLEEEKSRREASISSKKQALEEMVLQIVSYKNLVERNRKNEHKNGRPENDTVLHLPFLIINTDKEANVECSVSSDKSEFLFSFDKKFEIHDDFEILKKLNLACSLETTNPTAEEVKTAKSFLPTLHQHYVDEIIANRKKVEAEKEEKRKQQQLIADQMSMNLSQAQYVEPTSSLAQMSYSSRFNRQLQEHLINDGSEDRSAAAGIMERDYDMDKNVNQGSASRGPMYNTYSPQKIRAQVNTPLQVPPVTKRYYVQKTQGPMKHDMTPVVRTVNRPYSTVPPDRRLSTGATSVNSGPVKYYVPQGHQPMHQPVGQRYRVRPQQPQMSHMGQPHQVQQRVVYPAGSISGHQLQPGQRIVTQRIVAPGGPHPPGTIVRKVIRKIVVNNPKQSPAQQVIQKKMMEQDMCTFERKTEQPMTSAQAAALIQHPQPEEYDYFQ”, for which the “soluble on expression in E. coli” value is reported as “not soluble”.

As to “MGSDKIHHHHHHMIYDMSGIYLSSLTGIRNNSSSSSNSLDKEAFLRLLLQELEMQDPLEPMETKDMISQLSQLTSLEQITNLTSAVKDFVEAQTSVSPAQLASLIGKYVVVRNNTVNLVGGQSDSIIFNVDEDAHVVVQILDENGKLVRTEDLGTVQVGVHAWQWDGRDDNGISVEDGSYTYRVYKLTSSGLEEIGGMEGGVVEAVQIKDGKGFVLVNGSLYPVDSILEISQEGDA”, the “soluble on expression in E. coli” value is on record as “not soluble”.

In the case of “MLETEHANTEVHELCRQMIARIEKYGTLEGFSDSDILEVLKTIKEILEPLPCLIEIIAPVVVFGDIHGQLGDLLQFTNEVGRPPDFQYLFLGDYVDRGPNSLEVTVWLFCMKILFSKKVHLLRGNHEVRRVNTMYGFKEEMMRKRNSHLWKVFNDVFAELSICASINRKILCMHGGISPKIESWDSLTGMTKPRVHGDCEHGLIVDLIWSDPNRKDDTIQFNKMRGISTLFGKSVVDNLCTTLAIDLIIRAHEMKEVYVFHLYLSSMKGHTFEFDNRLLTVFSAPYYSGHNSNLGSVATISKSLKLRIVTLKPNKGYDRSKLDKRTLHDFEKNFQPLDENPRKNISCQFNVPPNGQKMSPFLGEYSMFAHETQFCKKDNETPVKKPYSSNQDEDHSVLDMIRKTQKGYGVEVSLKDKVMSLESIRKKLGMTTSTTPPPPRTPSPDAPLAQSPPIPRSPPSSTENA”, the “soluble on expression in E. coli” value was “not soluble”.

As to “MGDDLPDWRNKLEPVFLEFEDGCVPEEHYYPCIRRREDEEPKISAEEEYYLMVKEVEDSKGFDIDFAKFRCVFNYRPVDLDDNELALEPETTREFMDRLCRKSLEHFNEIHSTKYEFVRFIKANHHVSAGMMYFITFEGKLLSNDDDSKQFQAKLCYCGGTPEIISCELKP”, the “soluble on expression in E. coli” value is recorded as “soluble”.
